Results on one molecule are retold here after article PMC10147923, “Pain-causing stinging nettle toxins target TMEM233 to modulate NaV1.7 function” (Nature Communications, 2023).

Values joined by “and” are separate entries in the source; they are usually repeats but may differ in a detail not shown here. Identical values can stand only once.

For assay [1], the system named is hNaV1.7/TMEM233. Nature of the assay: Persistent current, CHO hNaV1.7/TMEM233. The format is cell-based, human. The note with it: Supplementary Fig 1e.
Assay [2] addresses NaV1.7 (Homo sapiens, UniProt Q15858). Nature of the assay: Effect of TMEM233 co-expression on ramp currents. The format is cell-based. The note with it: Fig 6j. On the procedure:
The holding potential was −90 mV. After a 50 ms pulse to −100 mV, ramps from −100 mV to +20 mV at a rate of 0.2 and 1.0 mV/ms were applied before and after ExTxA (100 nM) addition.

Sequence of NaV1.7 (Q15858 whole entry): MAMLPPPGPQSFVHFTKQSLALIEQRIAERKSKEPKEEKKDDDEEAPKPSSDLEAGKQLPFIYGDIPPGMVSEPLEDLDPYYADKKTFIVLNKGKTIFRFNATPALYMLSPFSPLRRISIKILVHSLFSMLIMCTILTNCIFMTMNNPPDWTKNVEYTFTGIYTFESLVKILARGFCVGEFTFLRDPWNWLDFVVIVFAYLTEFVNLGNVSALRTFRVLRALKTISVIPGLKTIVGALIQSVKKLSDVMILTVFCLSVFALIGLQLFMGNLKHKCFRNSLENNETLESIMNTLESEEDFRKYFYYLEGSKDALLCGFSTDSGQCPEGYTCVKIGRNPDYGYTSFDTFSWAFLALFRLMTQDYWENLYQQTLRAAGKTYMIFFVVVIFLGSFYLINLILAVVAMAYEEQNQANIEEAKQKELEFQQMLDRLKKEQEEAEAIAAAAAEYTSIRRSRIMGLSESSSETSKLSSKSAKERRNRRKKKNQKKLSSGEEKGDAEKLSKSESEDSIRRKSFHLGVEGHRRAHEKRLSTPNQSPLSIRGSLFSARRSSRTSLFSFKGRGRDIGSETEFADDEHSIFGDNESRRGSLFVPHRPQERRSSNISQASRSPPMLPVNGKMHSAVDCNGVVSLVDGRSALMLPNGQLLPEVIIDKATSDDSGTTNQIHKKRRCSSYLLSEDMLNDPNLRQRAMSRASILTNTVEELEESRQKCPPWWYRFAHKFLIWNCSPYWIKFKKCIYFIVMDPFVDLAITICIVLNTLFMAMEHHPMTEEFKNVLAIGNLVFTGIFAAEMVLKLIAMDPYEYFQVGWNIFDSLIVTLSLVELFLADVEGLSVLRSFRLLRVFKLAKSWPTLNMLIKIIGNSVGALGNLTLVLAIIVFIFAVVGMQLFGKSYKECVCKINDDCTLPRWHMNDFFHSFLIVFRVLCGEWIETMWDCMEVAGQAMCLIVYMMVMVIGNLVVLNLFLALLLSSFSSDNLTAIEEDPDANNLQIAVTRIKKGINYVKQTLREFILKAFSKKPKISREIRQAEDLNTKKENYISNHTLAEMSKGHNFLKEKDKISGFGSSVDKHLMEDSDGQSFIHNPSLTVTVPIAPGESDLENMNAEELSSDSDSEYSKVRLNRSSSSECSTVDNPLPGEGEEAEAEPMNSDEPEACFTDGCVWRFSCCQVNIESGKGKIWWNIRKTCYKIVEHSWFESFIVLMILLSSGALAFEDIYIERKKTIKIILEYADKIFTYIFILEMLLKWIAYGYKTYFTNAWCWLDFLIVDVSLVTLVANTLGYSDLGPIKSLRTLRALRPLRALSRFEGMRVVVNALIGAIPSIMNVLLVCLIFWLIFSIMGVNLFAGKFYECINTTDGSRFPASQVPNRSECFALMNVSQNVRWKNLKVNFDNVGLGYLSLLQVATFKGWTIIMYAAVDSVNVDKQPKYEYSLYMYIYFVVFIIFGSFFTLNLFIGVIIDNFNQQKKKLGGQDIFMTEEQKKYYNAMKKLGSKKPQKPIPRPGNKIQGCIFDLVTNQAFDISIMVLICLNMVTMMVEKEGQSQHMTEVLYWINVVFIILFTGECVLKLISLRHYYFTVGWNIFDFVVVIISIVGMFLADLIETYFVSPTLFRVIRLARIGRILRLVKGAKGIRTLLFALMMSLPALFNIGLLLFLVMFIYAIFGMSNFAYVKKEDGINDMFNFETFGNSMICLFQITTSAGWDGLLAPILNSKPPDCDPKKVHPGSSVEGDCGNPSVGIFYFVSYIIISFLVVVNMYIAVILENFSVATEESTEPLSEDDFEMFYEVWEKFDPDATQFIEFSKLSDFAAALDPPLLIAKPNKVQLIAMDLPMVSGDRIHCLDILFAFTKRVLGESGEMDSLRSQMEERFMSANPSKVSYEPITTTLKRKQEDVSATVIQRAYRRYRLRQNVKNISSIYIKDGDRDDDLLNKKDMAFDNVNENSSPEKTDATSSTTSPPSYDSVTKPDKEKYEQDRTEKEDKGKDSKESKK
Sequence of NaV1.7 (Q07699 19-218, further chain): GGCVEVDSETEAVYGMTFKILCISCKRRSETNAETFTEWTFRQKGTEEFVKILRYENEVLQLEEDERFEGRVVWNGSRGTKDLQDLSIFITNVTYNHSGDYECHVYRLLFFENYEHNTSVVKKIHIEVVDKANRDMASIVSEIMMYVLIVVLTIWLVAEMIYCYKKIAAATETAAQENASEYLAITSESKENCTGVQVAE

B1: TMEM233 (protein)
chain: MSQYAPSPDFKRALDSSPEANTEDDKTEEDVPMPKNYLWLTIVSCFCPAYPINIVALVFSIMSLNSYNDGDYEGARRLGRNAKWVAIASIIIGLLIIGISCAVHFTRNA
In the case of B1, in assay [1] (TMEM233 column, toxin not named, mean of n = 16, Control mean -0.0001975, n = 6), the “Persistent Current, mean” value is -2.01. Besides, the “Persistent Current, individual values” in assay [1] (TMEM233 column, toxin not named, single replicates) is -0.5607 and -1.881 and -2.243 and -3.609 and -4.773 and -1.301 and -2.129 and -2.32 and -2.174 and -2.568 and -0.4229 and -2.1714 and -2.227 and -1.642. The “Persistent Current, difference between means (TMEM233 - Control) ± SEM” value in assay [1] (unpaired t test P = 0.0003, 95% CI -2.968 to -1.051) is -2.010 ± 0.4595. Besides, in assay [2] (NaV1.7-TMEM233, mean of n = 9, NaV1.7 + pcDNA3.1 mean -0.1808, n = 11, analysis title says (+ExTxA)), the “Peak current ramp 1 mV/ms, mean” value is on record as -0.1202. The “Peak current ramp 1 mV/ms, individual values” in assay [2] (NaV1.7-TMEM233, single replicates, analysis title says (+ExTxA)) is -0.1309 and -0.159 and -0.09062 and -0.1816 and -0.1566 and -0.06849 and -0.0929 and -0.1073 and -0.09446. Moreover, the “Peak current ramp 1 mV/ms, difference between means (TMEM233 - pcDNA3.1) ± SEM” value in assay [2] (unpaired t test P = 0.0914 (ns), 95% CI -0.01079 to 0.1320) is 0.06063 ± 0.03399.
